Source: patent US20260152753

System: κ-casein (in skim milk)

With “PEP4 aspartyl protease of the Pichia pastoris host cell” the “SDS electrophoresis after 24 hours at 5 °C, 0.5% b-lactoglobulin from a pep4-containing host, heated and unheated” value was “the k-casein peak in both the heated and unheated samples had markedly reduced in size and a peak in the position expected for para-k-casein was present”, the “SDS-PAGE of heated skim milk with B-lac from a pep4-containing host: κ-casein band and para-κ-casein band” value was “the band intensity of the k-casein band decreased and a peptide band consistent with that of para-k-casein appeared” and the “SDS-PAGE of unheated skim milk with B-lac from a pep4-containing host: κ-casein band and para-κ-casein band” value was “the band intensity of the k-casein band decreased and a peptide band consistent with that of para-k-casein appeared”. The “lab-on-a-chip para-κ-casein peak area 24 h after 80 °C/30 min treatment, sample B-lac 1A (start: 0)” value was “After 24 hours, the peak area was 115.2 and 35.82 for κ-casein and para-κ-casein, respectively”, the “lab-on-a-chip para-κ-casein peak area 24 h after 120 °C/10 min treatment, sample B-lac 1A (start: 0)” value was “After 24 hours, the peak area was 179.4 and 16.12 for κ-casein and para-κ-casein, respectively” and the lab-on-a-chip peak area of para-κ-casein formed at 24 h at 5 °C, sample B-lac 1A (0 h: 0) was 147 peak area. For the same substance, the lab-on-a-chip peak area of para-κ-casein formed at 24 h at 5 °C, sample B-lac 1B (0 h: 0) was 56.1 peak area, the “lab-on-a-chip κ-casein peak area 24 h after 80 °C/30 min treatment, sample B-lac 1A (start: 249.48)” value was “After 24 hours, the peak area was 115.2 and 35.82 for κ-casein and para-κ-casein, respectively” and the “lab-on-a-chip κ-casein peak area 24 h after 120 °C/10 min treatment, sample B-lac 1A (start: 249.6)” value was “After 24 hours, the peak area was 179.4 and 16.12 for κ-casein and para-κ-casein, respectively”. For the same substance, the “lab-on-a-chip κ-casein peak area at 24 h at 5 °C, sample B-lac 1A (0 h: 255)” value was 91.5 (64% degraded), the “lab-on-a-chip κ-casein peak area at 24 h at 5 °C, sample B-lac 1B (0 h: 253.98)” value was 138.72 (46% degraded) and the “microfluidic chip SDS-PAGE of skim milk with about 1% B-Lac 1A held 0, 24 or 48 hours at room temperature” value was “showed evidence of proteolysis on storage with a decrease in the band associated with k-casein, and a new peptide peak appearing”. For the same substance, the “κ-casein degraded 24 h after 80 °C/30 min treatment, sample B-lac 1A” value was “indicating that κ-casein had degraded by 54%”, the “κ-casein degraded 24 h after 120 °C/10 min treatment, sample B-lac 1A” value was “indicating that κ-casein had degraded by 72%” and the “κ-casein degraded after 24 h at 5 °C, sample B-lac 1A” value was 91.5 (64% degraded). The “κ-casein degraded after 24 h at 5 °C, sample B-lac 1B” value was 138.72 (46% degraded).
